Assay results published in the DeepSol protein solubility set.

experiment: soluble on expression in E. coli; label from the status in PepcDB or PDB records

For “MGSDKIHHHHHHMSDTLLEIDNLTVDFQLPTGTVSAVKHVSFSLQPGETLALVGESGSGKSVSSTAAMRLLPELARTSGAIRFKGEDLLRATPRRMRHIRGNAISMIFQEPMTSLNPLHRIGRQIAEVLEKHRGLKGRQARTKIVELLEQVGIPDPARRIDSYPHELSGGQRQRVMIAMALACEPELLIADEPTTALDVTVQAQILALLKDLQARYGMAILFITHDLGIVRHFADRVCVMRRGELIESGPTAELFDTPRDDYTRMLIDADPRGRKTPVDPSMPVLFEAKDLQVRFTLKKRLFRASEHFEAVRGIDLTIRRGQTVGIVGESGSGKSTLGRALLRLLDSRGEIRFDGQDIAALDTAGMRPLRSRLQVVFQDPFGSLSPRMTVGEVISEGLRVHHPTLDRRQREARVIEALEDVALDPAMRNRYPHEFSGGQRQRIAIARALVLKPEFLLLDEPTSALDRSVQVTVIDLLRDLQQKHGLTYLFISHDLSVVRALADTVLVMKAGQVVEQGATEEIFANPREHYTRELMRAAFVDAA”, which “soluble on expression in E. coli” value is on record?
Its value is “not soluble”.

Which “soluble on expression in E. coli” value does the source give for “MDKESVDTLFGMGLTAYQAKDYTKAIHALEHLREHDPSYTTLYSYLAKSYEENGEPEKAIAVLRDGLTQDEFNKEMFLEAGKLAVTLRLPEEAEEFYRQAIVLDEEFSEAIMQLNKLLLAKENYEGVIELVEGLGEEVISEPQIFWDVSVAYQETEQYNKAKANYELAYPHFTNNPTFLKEYGLFLREEGEHAKSQEVLRSYLELEPEDTEILSLFDLEHHHHHH” here?
Its value is “soluble”.

Which “soluble on expression in E. coli” value does the source give for “MVVAKPTAAVSIEDLIKKHSDVDPFLVKKWERIFSLFFDRNASHQVDWGDFYLVVKKVRDIYGAESVQTGFAKKSLAALWEGLCSIADADKDQLISIDEWIGLLKKTDAKTEPKWFKDYQNFMFKLFDVSCDGVMDLAEYTDGMSTYGFDQSECDAAFHKFSVDKKGQYVPQMKPETWNTYFHQLFYSTNKSDVGNHLFGIIDF” here?
Its value is “not soluble”.

For “MSPWERILLEEILSEPVRLVKERVRTHTGRELTYVYRPGPVAASFVLPVTERGTALLVRQYRHPTGKFLLEVPAGKVDEGETPEAAARRELREEVGAEAETLIPLPSFHPQPSFTAVVFHPFLALKARVVTPPTLEEGELLESLELPLTEVYALLAKGEIQDASTALTLFYAEPHLKRLGLL”, which “soluble on expression in E. coli” value is on record?
Its value is “soluble”.

With “MLREVVHRFGESDFTFLSVLDSYALLDRIDPAAFVKDEQMPYWAEIWPAAVTLSRQIVETGELAGKSVLELGAGVGMASIAAARSGARVLCTDYSTEALRFVAYNAMKNRVPLDTARLDWRMVKGAEKFDAVIAADVLYERVNLLPIVTAIDALLAPGGAAYIADPRRRLADQFLELVHENGFEVAETRMFDAEGDQTVAVTIYKLQRLKALEHHHHHH” as the sequence, how does the “soluble on expression in E. coli” value read?
The value was “not soluble”.

For “MLKPLGDRVVIELVQAEEKTASGIVLPDTAKEKPQEGKVIAVGTGRVLENGERVALEVAAGDLIIFSKYAGTEVKYEGTDYLILRESDILAVIG”, which “soluble on expression in E. coli” value is on record?
Its value is “not soluble”.

For “MSLSVQREDVDIKLIAIDMDGTLLNDEQLISDENRKAIREAEDKGVYVVISTGRTLMTCRELAESLKLSSFLITANGSEIWDSNFNLVERKLLHTDHIQMMWDLRNKHNTNFWASTVNKVWRGEFPENITDHEWLKFGFDIEDDDIRNEVLEELRKTKSSEITNSSPTNIEVNALGINKAAAPCQGYGKLGFTMENVMAMGDSLNDIAMIKEAGLGVAMGNAQDIVKETADYITDTNIEDGVAKAIRHWVLEGHHHHHH”, which “soluble on expression in E. coli” value is on record?
The value was “soluble”.

Which “soluble on expression in E. coli” value does the source give for “MGHHHHHHSHMEAEESEKAATEQEPLEGTEQTLDAEEEQEESEEAACGSKKRVVPGIVYLGHIPPRFRPLHVRNLLSAYGEVGRVFFQAEDRFVRRKKKAAAAAGGKKRSYTKDYTEGWVEFRDKRIAKRVAASLHNTPMGARRRSPFRYDLWNLKYLHRFTWSHLSEHLAFERQVRRQRLRAEVAQAKRETDFYLQSVERGQRFLAADGDPARPDGSWTFAQRPTEQELRARKAARPGGRERARLATAQDKARSNKGLLARIFGAPPPSESMEGPSLVRDS” here?
The value was “not soluble”.

Which “soluble on expression in E. coli” value does the source give for “MASGPHSTATAAAAASSAAPSAGGSSSGTTTTTTTTTGGILIGDRLYSEVSLTIDHSLIPEERLSPTPSMQDGLDLPSETDLRILGCELIQAAGILLRLPQVAMATGQVLFHRFFYSKSFVKHSFEIVAMACINLASKIEEAPRRIRDVINVFHHLRQLRGKRTPSPLILDQNYINTKNQVIKAERRVLKELGFCVHVKHPHKIIVMYLQVLECERNQTLVQTAWNYMNDSLRTNVFVRFQPETIACACIYLAARALQIPLPTRPHWFLLFGTTEEEIQEICIETLRLYTRKKPNYELLEKEVEKRKVALQEAKLKAKGLNPDGTPALSTLGGFSPASKPSSPREVKAEEKSPISINVKTVKKEPEDRQQASKSPYNGVRKDSKRSRNSRSASRSRSRTRSRSRSHTPRRHYNNRRSRSGTYSSRSRSRSRSHSESPRRHHNHGSPHLKAKHTRDDLKSSNRHGHKRKKSRSRSQSKSRDHSDAAKKHRHERGHHRDRRERSRSFERSHKSKHHGGSRSGHGRHRR” here?
The value was “not soluble”.

With “MGSDKIHHHHHHMFGFRLSGGKGILQRSQVALVVMESTGGLEIPAAKAIRRAGIAVIIANPRQTHQFAQLQPLTKTDAKDAKMPAFFAQMTAQKEDSQTMPYQPPTEAEEVLEALVNRRNQSADMRTAEKNRLHQVHETQVGSVKQLIAHFDRLIDELDKQIDDHTHTHFDGKAQVAEQIKGIGSITTATLMAMLPELGRLSHKRIASLAGIAPHPRESEETKFKSRCFGGRSAVRKALYMATVAATRFEPLIRDFYQRLLSKGKPYKVAVTACMRKLLTISNTRMRDYFAENDTAENGIRTA” as the sequence, how does the “soluble on expression in E. coli” value read?
The value was “not soluble”.

With “YDTAYGGFGRGMKFPMHHALLLLARASMAGDRRALNMLTGTLDHMLFSGVHDLVEGGLHRYSVTRDWRLPHYEKMLYDQAWIIQVLAEAYAASGDRLYLDFAVSTLEFAMSWLWTGRGFASSVDADTGEGEGAYYT” as the sequence, how does the “soluble on expression in E. coli” value read?
The value was “not soluble”.

Which “soluble on expression in E. coli” value does the source give for “MSDSDIPSSTLYKDNVDWKDITPIYPSKEEEVAVKIAVTEDFTDAFAYFRAILIKNEKSDRVMALLEDCIRLNPANYTVWQYRRVCLTELGWDLKKEMRYLSDIIQESPKNYQVWHHRRFIVETIGESAVNDELHFCSEVIRDENKNYHAWQHRQWVVRTFKVPLEKELTFALHMLLLDNRNNSAYNYRYFLMTLYDKTEDASQLDIEINLAKKFIENIPNNESAWNYLAGLLITNGVTSNSDVVSFVEDLYETTPEEKRSPFLLAFIADMMLENIENQKSAEESAGRAKKLYKDLQSIDPVRVNYYRHQSLLAQTMLIKAQTKVTAK” here?
Its value is “not soluble”.

For “MGSDKIHHHHHHMSRFAACFEDLPDPRGRNARHPLTSILFIAVAAIVCGAESCTDMADFGVAKKKWLKTIVPLPYGIPSHDTFSTVFRHLDPDAFDAAFRRLTASFAQGLEGVVAIDGKAVRGAYRRAAKATPLHFVNVWAAGPGLVIGQKLAPGRNEVQGALDALALLALEGSIVTADALHCRPDTARAILAAGGDYALALKANQPGLLAQALARIEDADHVESIQIAAETAHDRTETRRASVVAVDDINFPGLQAIGCVETTSRHTNGHLTSHVRYFLLSTTMSPSALIEVVRTHWQIENKLHWVLDVHFREDAARNRKDNGPQNIAFLRKIALNLLRSHPDKASIRRKIKKAGWDDQFLTSLIAHMR”, which “soluble on expression in E. coli” value is on record?
The value was “not soluble”.

For “MDFKSSDAIRGPRTEDHLPHTAQAAVKIVIVGGFGVGKTTMVGSVSEIRPLTTEETMTQMGIGVDDNYGSESKTATTVAMDFGRISITEQLVLYLFGTPGQERFWFLWNGLFEGALGAVVLIDTRRLEVSFDVIGRLEERGVPFVIAVNDFPDAPRYPVEDLRGALDLTEDIPIVKCDARRRASSREVLMTLMHFLHSLAVSKTSVLEHHHHHH”, which “soluble on expression in E. coli” value is on record?
The value was “not soluble”.

With “MGSDKIHHHHHHMEKMLYTAASGAVRILEAQSIRANNLANAETAGFKADLERVNAVPLVAQGNSLNTRVMAQTESSGFSQQSGVINPTGRSLDLAIRDRGLFSVAVDGAEAYTRSGAIETNAEGQLTIDGRPVLGIDGPIALPEYKDVFVGEDGTVSVLPAEGGIIEEVGRLKLVNPDFALMQKGQDGLLYRRDGQAVPQDEGVLVDSGFLESSNVQAVSELIASMDLSRQFEIQVKLMKSAEKLAEAGNRLLGNV” as the sequence, how does the “soluble on expression in E. coli” value read?
Its value is “not soluble”.

Which “soluble on expression in E. coli” value does the source give for “MMITRELVLKANREQPPYASILALAASGFSLEKSVQFSEKQQLALNLDGELLSNDVEIARIIAQSTDAADSLLGSSIIDFAVVDDLTNFIADAVTKNDYSLLLGKDFPTKILDNSLTVADFAIFSVAHNNPQLKAKFSGIIDKVLKEPTLAAAHNFVGLYKSAAAPTATASTGKEKKKDEGKFVELPGAEKGKVVVRFPPEASGYLHIGHAKAALLNQYYQQAFEGQLIMRFDDTNPAKENAHFEHVIKEDLSMLNIVPDRWTHSSDHFEMLLTMCEKLLKEGKAFVDDTDTETMRNEREQRQDSRNRSNTPEKNLQLWEEMKKGSPKGLTCCVRMKIDMKSNNGAMRDPTIYRCKPEEHVRTGLKYKVYPTYDFTCPIVDSVEGVTHALRTTEYHDRDDQYYFICDALGLRRPHIWEYARLNMTNTVMSKRKLTWFVDEGHVEGWDDPRLPTVRGVMRRGLTVEGLKQFIVAQGGSRSVVMMEWDKIWAFNKKVIDPVAPRYTALDSTSPLVSIELTDSISDDTSNVSLHPKNAEIGSKDVHKGKKLLLEQVDAAALKEGEIVTFVNWGNIKIGKIEKKGAVITKISATLQLDNTDYKKTTKVTWLGDVKAEAGKTIPVVTADYDHIISKAIIGKDEDWKQFINFDSVHYTKMVGEPAIKNVKKGDIIQIQRKGFYIVDQPYNPKSELSGVETPLLLIAIPDGHTGKEAEKPPKGAPVSAAASSGGSDALQLYNSIEQQGGIVRDLKTKDAKSQATKDAIAKLLDLKKKYKELTGSDHKPGAPPSAPAPTTPSSSESNSALNIYNLIEAQGLLVRELKGKDAKSQATKDAIAKLLELKKQYKEVSGSDHKPGVPPAASVASAPAPAPAAGSTNALDIYHQIESQGALVRELKGKDAKSQATKDAIAKLLALKKQYKEVTGSDHKPGVVPVSAPAPTPLAGGADIAGQIEAQGVLVRDLKNKDSKSQETKDAIAKLLELKKNYKEVTGSDYKPGPAPAAAPAKVTVPAPSVSGGDTLSKQIDDQALLVRELKMKDAKSQETKDAIAKLLQLKKQYKDATGSDYKPAPAQLAASAAAAPAPAPAFDEAALLKEIEEQGAVVRDAKSKDPKSQDSADAINKLLALKANFKKATGKDFPAPSNAQSKKGKKK” here?
Its value is “not soluble”.

For “MKPRESMVRLKMFQVRGKRREIAQLEMMIAEFERMVLELEAQIVHEECKSGNSDVHHFAYSALARAARQRRDNLINSIRDLQLQKTNAEIALHEVTTELQRAQLLEARENGGVAGEKDIFMQSRSMTG”, which “soluble on expression in E. coli” value is on record?
Its value is “not soluble”.

For “MTSDATHEEAVSLLQELGLKEYEAKCFVGLSRMSSGTAKGLSEVTDVPRTRVYDAVRILEAKGLVEVQHSSPQQFRAVPLSEATETLRDQYEERIERLQSALREMGRIEADNDEAELQEVWSLSGSDAIENRAAAISADATDEVVLVIGSEAVLTEPLIKQLNSLNPNADLIVGTGSASIRDRVEQEIPRATAFLSELDWLHSEMIPEEDAAVGRLLLVDRSTMLVSSINPQTGDEQAIFATGLRNGLIVIARRLLSQGVVEMTPLEQD”, which “soluble on expression in E. coli” value is on record?
The value was “not soluble”.

Which “soluble on expression in E. coli” value does the source give for “MGSDKIHHHHHHMKSYKNYIFDFYGTLVDIRTDENKLEVWNQLTQIYNAFGCSYRPRQLKNAYHRFVEEAERFLAETVSYQYVEIDLETLFIRLLTDAPNENQSTNKPTDLETFGQVVATIFRVLSREKLEAYENTLTSLQTLAARAARLFILSNAQRIFTQAEIEQTGCADLMEKIYISSDFKMKKPEPAFLQLVLEENNLDVKETVMVGNDLTSDIAIAHELGMDSILLNTFPYSQEEIDSYRRLGWNFEVVGDIAELL” here?
Its value is “not soluble”.
